Measurements taken from patent publication US5637463.

Assays:
Experiment in all cases: yeast two-hybrid with co-expressed Lck, LacZ reporter
[1] = target: LexA-βCT fusion protein (C-terminus of the rat β subunit of FcεRI), co-expressed with Lck (E. coli; rat)
[2] = target: LexA-FcεRIγCT double mutant with Tyr64 and Tyr75 changed to phenylalanine, co-expressed with Lck (E. coli; human) (UniProt P0A7C2)
[3] = target: LexA-NLS-FcεRIγ CT fusion protein, co-expressed with Lck (tyrosine-phosphorylated) (E. coli; human) (UniProt P0A7C2)
[4] = target: LexA-FcεRIγCT mutant with Tyr75 changed to phenylalanine, co-expressed with Lck (E. coli; human) (UniProt P0A7C2)
[5] = target: LexA-FcεRIγCT mutant with Tyr64 changed to phenylalanine, co-expressed with Lck (E. coli; human) (UniProt P0A7C2)

| Substance | Galactosidase units (Galactosidase units) [1] | Galactosidase units (Galactosidase units) [2] | Galactosidase units (Galactosidase units) [3] | Galactosidase units (Galactosidase units) [4] | Galactosidase units (Galactosidase units) [5] |
| --- | --- | --- | --- | --- | --- |
| Vmw65-Lyn SH2 fusion protein (human Lyn amino acids 124-229) (from UniProt P06492) | 858 | 0 | 0 | 0 | 0 |
| Vmw65-Syk N+C SH2 fusion protein (human Syk amino acids 11-262) (from UniProt P06492) | 1070 | 0 | 559 | 0 | 0 |
| Vmw65-SykC SH2 fusion protein (human Syk amino acids 173-262) (from UniProt P06492) | 593 | 0 | 0 | 0 | 0 |
| Vmw65-SykN SH2 fusion protein (human Syk amino acids 11-111) (from UniProt P06492) | 0 | 0 | 0 | 0 | 0 |
